How the values were obtained:
Assay in all cases: GST pull-down of 35S-labeled protein on glutathione-Sepharose beads
[1] = biological target: T1, glutathione S-transferase (GST) control (UniProt P08515 1-218 = GST)
T1 construct: Control protein immobilized on glutathione-Sepharose beads
Protocol: (§1) After 36 h, extracts are prepared and immunoprecipitated with a monoclonal antibody to the Flag-epitope. The immunoprecipitates (upper panel) and the corresponding cellular lysates (lower panel) are analyzed by SDS-PAGE and immunoblotted with a HRP-conjugated T7-antibody. IP, immunoprecipitates. (C) Mutations in the BH3 domain of Blk abrogate its ability to interact with Bcl-2 and Bcl-xL. 35S-labeled wild type Blk, mutant Blk-DG59 (M1) or mutant Blk-DG59-D60 (M2) (lane 1, input) are precipitated with GST (lane 2), GST-Bcl-2 (lane 3), or GST-Bcl-xL (lane 4) and then analyzed by SDS-PAGE and Coomassie staining to detect the GST fusion proteins (lower panel) and autoradiography to detect the interacting labeled proteins (upper panel). (D) Mutations in the BH3 domain of Blk abrogate its proapoptotic activity. MCF-7 cells are transfected with the indicated plasmids and then assayed for apoptosis as in FIG. 3A.
(§2) Blk binds Bcl-2 and Bcl-xL. All the proapoptotic Bcl-2 family members can heterodimerize with Bcl-2 and Bcl-xL. To determine whether Blk can also bind to Bcl-2 or Bcl-xL, in vivo and in vitro binding studies are performed. Bcl-2 and Bcl-xL are constructed as GST fusion proteins inpGEX-4T-2 and pGEX-2T, respectively, by placing the coding sequence of Bcl-2 or Bcl-XL in frame C-terminal to the GST protein (Pharmacia). GST fusion proteins are expressed in E. coli and purified by affinity chromatography on a glutathione-coupled substrateGlutathione Sepharose 4B (Pharmacia). ³⁵S-labeled (Blk, Bik, Bax) proteins are expressed in vitro using a coupled transcription/translation system in rabbit reticulocyte lysate (TNT Kit; Promega). In vitro protein-protein interactions are carried out according to Boyd et. al. (supra). Briefly, labeled proteins are precleared by mixing with glutathione-coupled Sepharose beads, which are then removed by centrifugation. The supernatants are incubated with GST-Bcl-2, GST-Bcl-xL or GST immobilized on glutathione-coupled Sepharose beads for 2 h at 4° C. After extensive washing, proteins are recovered by boiling the beads in SDS-sample buffer and analyzed on 12% SDS-PAGE.
(§3) ³⁵S-labeled Blk, Bik or Bax are precipitated with glutathione S-transferase (GST), GST-Bcl-2 or GST-Bcl-xL fusion proteins immobilized on glutathione-Sepharose beads (FIG. 5A).

[2] = biological target: T2, GST-Bcl-xL fusion protein (human, UniProt P08515 1-218 = GST; Q07817 1-233)
T2 construct: Expressed in E. coli and immobilized on Glutathione Sepharose 4B beads
Protocol: as §1, §2, §3

[3] = biological target: T3, GST-Bcl-2 fusion protein (human, UniProt P08515 1-218 = GST; P10415 1-239)
T3 construct: Expressed in E. coli and immobilized on Glutathione Sepharose 4B beads
Protocol: as §1, §2, §3

T1 sequence (P08515 whole entry): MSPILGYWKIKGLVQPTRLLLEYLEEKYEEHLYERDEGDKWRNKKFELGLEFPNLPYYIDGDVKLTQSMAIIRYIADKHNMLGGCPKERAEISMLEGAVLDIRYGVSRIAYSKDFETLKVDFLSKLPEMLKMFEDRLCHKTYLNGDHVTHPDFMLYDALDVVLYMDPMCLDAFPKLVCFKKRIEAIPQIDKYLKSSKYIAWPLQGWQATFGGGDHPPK
T2 sequence (P08515 1-218, tags or fused parts left off): as the sequence (P08515 whole entry) above
T3 sequence (P08515 1-218, tags or fused parts left off): as the sequence (P08515 whole entry) above

B1: murine Blk (Bik-like killer), wild type (other)
chain: MSEARLMARDVIKTVPHDQVPQPPVASETPSMKEPVRDVDLMECVEGRNQVALRLACIGDEMDLCLRSPRLVQLPGIAIHRLAVTYSRTGVRGIFRSLIRSLTNLRENIWSWRVLTPGAWVSPDQDPGQLFPMVLLVFLLLGGAWYLQLQ
modifications: 35S-labeled (in vitro translated in rabbit reticulocyte lysate) in the GST pull-down
notes: Protein of 150 amino acids; Used 35S-labeled from in vitro transcription/translation in the pull-downs, and expressed from pRSC-LacZ in the apoptosis assays; also called 35S-labeled Blk; wild type Blk
B1: no binding [1].

B2: Bik (other, human, UniProt Q13323 1-160, looked up)
chain: MSEVRPLSRDILMETLLYEQLLEPPTMEVLGMTDSEEDLDPMEDFDSLECMEGSDALALRLACIGDEMDVSLRAPRLAQLSEVAMHSLGLAFIYDQTEDIRDVLRSFMDGFTTLKENIMRFWRSPNPGSWVSCEQVLLALLLLLALLLPLLSGGLHLLLK
modifications: 35S-labeled (in vitro translated)
notes: also called human Bik/Nbk; 35S-labeled Bik
B2: no binding [1].

B3: mutant Blk-DG59-D60 (Gly59 and Asp60 deleted) (other)
chain: MSEARLMARDVIKTVPHDQVPQPPVASETPSMKEPVRDVDLMECVEGRNQVALRLACIEMDLCLRSPRLVQLPGIAIHRLAVTYSRTGVRGIFRSLIRSLTNLRENIWSWRVLTPGAWVSPDQDPGQLFPMVLLVFLLLGGAWYLQLQ
modifications: 35S-labeled (in vitro translated) in the GST pull-down
notes: Cloned in pFLAG CMV-2 and the pRSC vector; also called M2
B3: no binding [2]; no binding [3].
